According to doi:10.1101/370387 (bioRxiv, 2018):
Read-outs that look alike come from different tables or passages of the source. No end group written: not given here.

Assays:
[1] = molecular target: the molecule itself; experiment: cryo-EM structure
[2] = molecular target: the molecule itself; experiment: cryo-EM structure; remark: listed apart in the source

Protein | stoichiometry N [1] | stoichiometry N [2]
phospholamban Asn27-Ala mutant (canine PLN sequence), super-inhibitory pentameric form (natural protein, UniProt P61012 1-52, looked up, cysteine pairing not given here; also: pentameric form) MDKVQYLTRSAIRRASTIEMPQQARQALQNLFINFCLILICLLLICIIVMLL | 4 | –
phospholamban Lys27-Ala mutant (human PLN sequence), super-inhibitory pentameric form (natural protein, UniProt P26678 1-52, looked up, cysteine pairing not given here; also: pentameric form) MEKVQYLTRSAIRRASTIEMPQQARQALQNLFINFCLILICLLLICIIVMLL | – | 5
